{
  "source": "patent US6835378B2",
  "about": "“Method and compositions for inhibiting thrombin-induced coagulation” (The Texas A&M University System University, priority 2001, dated 2004)",
  "biological_target": "T1, Fg Bβ chain (Homo sapiens, UniProt P02675)",
  "T1 construct": "recognized the mature recombinant Bβ chain (residues 1-462); made in house; host or cells: E. coli",
  "T1 sequence (P02675 31-491)": "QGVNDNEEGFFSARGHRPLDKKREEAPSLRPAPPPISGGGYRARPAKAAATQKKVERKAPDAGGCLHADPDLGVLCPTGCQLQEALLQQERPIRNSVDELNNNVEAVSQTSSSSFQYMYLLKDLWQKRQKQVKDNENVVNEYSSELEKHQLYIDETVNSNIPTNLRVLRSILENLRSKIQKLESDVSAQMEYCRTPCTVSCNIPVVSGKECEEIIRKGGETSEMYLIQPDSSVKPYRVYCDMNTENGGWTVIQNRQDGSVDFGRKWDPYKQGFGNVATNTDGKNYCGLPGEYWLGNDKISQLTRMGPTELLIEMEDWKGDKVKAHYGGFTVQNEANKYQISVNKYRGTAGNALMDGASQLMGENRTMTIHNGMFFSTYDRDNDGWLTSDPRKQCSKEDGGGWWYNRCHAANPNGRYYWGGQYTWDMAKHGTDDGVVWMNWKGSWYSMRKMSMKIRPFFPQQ",
  "test": "Western ligand blot with biotin labeled rSdrG(50-597)",
  "assay_type": "binding",
  "source_text": "Construction of Fg Bβ Chain Truncates—An E. coli strain harboring plasmid p668 which contains the cDNA for the Fg Bβ chain was kindly provided by Dr. Susan T. Lord (University of North Carolina, Chapel Hill, N.C.). The 1525 bp fragment from p668 was subcloned into the plasmid pQE30 to produce recombinant mature Bβ chain with a N-terminal His-tag. Additional Bβ chain constructs (FIG. 3A) were made by subcloning into either pQE30 or pGEX-KG (Pharmacia) to produce recombinant proteins with a N-terminal His-tag or Glutathione S-transferase (GST) fusion.\nWestern Ligand Blot Analysis—Whole E. coli lysates harboring each respective Fg Bβ chain construct were fractionated by SDS-PAGE and the separated proteins were transferred to nitrocellulose membrane with a semi-dry transfer cell (Bio-Rad). The membrane was incubated overnight with 5% (w/v) non-fat dry milk in PBS, pH 7.5 at 4° C. to saturate non-specific binding sites. After blocking, the membrane was washed three times with PBST and then incubated with biotin labeled rSdrG(50-597) (0.5 μM) for 1 h at room temperature. rSdrG(50-597) was biotin labeled using EZ Link-sulfo-NHS-LC biotin (Sigma) according to the manufacturers' instructions. After three more washes with PBST, the blot was incubated with a 1:5000 dilution of streptavidin-AP conjugated for 1 h at room temperature and developed with 5-bromo-4-chloro-3-indolyl phosphate (BCIP) and nitro blue tetrazolium (NBT) (Biorad) in carbonate:bicarbonate buffer (14 mM Na2CO3, 36 mM NaHCO3, 5 mM MgCl2:6H2O, pH 9.8) for ˜15 min at room temperature.",
  "data": [
    {"molecule": "rSdrG(50-597): recombinant His-tagged A region (residues 50-597) of SdrG, a fibrinogen-binding MSCRAMM from S. epidermidis (protein) HHHHHHAEENTVQDVKDSNMDDELSDSNDQSSNEEKNDVINNSQSINTDDDNQIKKEETNSNDAIENRSKDITQSTTNVDENEATFLQKTPQDNTQLKEEVVKEPSSVESSNSSMDTAQQPSHTTINSEASIQTSDNEENSRVSDFANSKIIESNTESNKEENTIEQPNKVREDSITSQPSSYKNIDEKISNQDELLNLPINEYENKVRPLSTTSAQPSSKRVTVNQLAAEQGSNVNHLIKVTDQSITEGYDDSDGIIKAHDAENLIYDVTFEVDDKVKSGDTMTVNIDKNTVPSDLTDSFAIPKIKDNSGEIIATGTYDNTNKQITYTFTDYVDKYENIKAHLKLTSYIDKSKVPNNNTKLDVEYKTALSSVNKTITVEYQKPNENRTANLQSMFTNIDTKNHTVEQTIYINPLRYSAKETNVNISGNGDEGSTIIDDSTIIKVYKVGDNQNLPDSNRIYDYSEYEDVTNDDYAQLGNNNDVNINFGNIDSPYIIKVISKYDPNKDDYTTIQQTVTMQTTINEYTGEFRTASYDNTIAFSTSSGQGQGDLPPE", "values": [
      {"measurement": "binding to truncates lacking the N-terminal 25 residues, rβ(25-95) and rβ(25-195)", "setting": "0.5 μM biotin labeled protein", "value": "failed to bind"},
      {"measurement": "recognition of recombinant Bβ chain (1-462) and truncates 1-341, 1-220, 1-195, 1-95", "setting": "0.5 μM biotin labeled protein", "value": "recognized"},
      {"measurement": "recognition of Fg chains", "setting": "native Fg chains, data not shown", "value": "recognized the Bβ chain, but not the Aα or γ chains of Fg"}
    ]}
  ]
}
